Reference: the nanobody polyreactivity screen of Harvey et al. (2022)

test: yeast display, Sf9 membrane polyspecificity reagent, FACS + sequencing; frameworks hold sequencing errors
Method in brief: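 Galactose induction of a Saccharomyces cerevisiae BJ5465 synthetic nanobody display library ran 36–48 hours. The cells were then stained for 1 hour at 4 °C with 10% biotinylated, detergent-solubilized Sf9 membrane reagent, pulled down on streptavidin microbeads and FACS-sorted into low and high (top ~1%) gates on expression and reagent-binding fluorescence. Labels for polyreactivity follow the gate of origin.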

Sequence | polyreactivity (PSR sort gate)
QVQLVESGGGLVQAGGSLRLSCAASGSTFGPYAMGWYRQAPGKERELVAGITWSSASTYYADSVKGRFTISRDNAKNTVYLQMNSLKPEDTAVYYCIADSESTDYDYWGQGTQVTVSS | low polyreactivity
QVQLVESGGGLVQAGGSLRLSCAASGSTFGPYAMGWYRQAPGKERELVATISGSGSSTYYADSVKGRFTISRDNAKNTVYLQMNSLKPEDTAVYYCATDLYFDLRYDYWGQGTQVTVSS | low polyreactivity
QVQLVESGGGLVQAGGSLRLSCAASGSTFGPYTMGWYRQAPGKERELVATISSGGSTYYADSVKGRFTISRDNAKNTVYLQMNSLKPEDTAVYYCAARYWSIYDYWGQGTQVTVSS | low polyreactivity
QVQLVESGGGLVQAGGSLRLSCAASGSTFGQYGMGWYRQAPGKERELVAAIRIGGSTNYADSVKGRFTISRDNAKNTVYLQMNSLKPEDTAVYYCNAGGTPTWTHGGYIELDYWGQGTQVTVSS | low polyreactivity
QVQLVESGGGLVQAGGSLRLSCAASGSTFGRNAMGWYRQAPGKERELVAAISRSGGSTYYADSVKGRFTISRDNAKNTVYLQMNRLKPEDTAVYYCAAAVSPGGVYGNRYYYWGQGTQVTVSS | high polyreactivity
QVQLVESGGGLVQAGGSLRLSCAASGSTFGRNAMGWYRQAPGKERELVAAITASGGTTYYADSVKGRFTISRDNAKNTVFLQMNSLKPEDTSVYYCARAGHFSFKYDYWGQGTQVTVSS | low polyreactivity
QVQLVESGGGLVQAGGSLRLSCAASGSTFGRNAMGWYRQAPGKERELVAGITRRGGSTYYADSVKGRFTISRDNAKNTVYLQMNSLKPEDTAVYYCNTRGQSSSGIYDYWGQGTQVTVSS | high polyreactivity
QVQLVESGGGLVQAGGSLRLSCAASGSTFGRNAMGWYRQAPGKERELVATINWNGGRTYYADSVKGRFTISRDNAKNSVYLQMNSLKPEDTAVYYCNATKTGPATVRYYYWGQGTQVTVSS | high polyreactivity
QVQLVESGGGLVQAGGSLRLSCAASGSTFGRNTMGWYRPAPGKERELVASITRSSTSTYYADSVKGRFTISRDNAKNTVYLQMNSLKPEDTAVYYCAARALRTDRSPVGRHEYWGQGTQVTVSS | low polyreactivity
QVQLVESGGGLVQAGGSLRLSCAASGSTFGRYALGWYRQAPGKEREFVAAISWSGGSTYYADSVKGRFTISRDNAKNTVYLQMNSLKPEDSAVYYCAASYIYQSSWYHRMYYWGQGTQVTVSS | high polyreactivity
QVQLVESGGGLVQAGGSLRLSCAASGSTFGRYAMGWYREAPGKERELVAGITYGSTYYADSVKGRVTISRDNAKNTVYLPMNSLKPEDTAVYACAADLSYTSVHGYRSETLMDYWGQGTQVTVSS | low polyreactivity
QVQLVESGGGLVQAGGSLRLSCAASGSTFGRYAMGWYRQAPGKERELVAAISRRGGSTYYADSVKGRFTISRDNAKNTVYLQMNSLKPEDTAVYYCATGYPIDLGREFDYWGQGIQVTVSS | high polyreactivity
QVQLVESGGGLVQAGGSLRLSCAASGSTFGRYAMGWYRQAPGKERELVAAITSDTGHTNYADSVKGRFTISRDNAKNTVYLQMNSLKPEDTAVYYCAAANFWVLWGHVIGNYDSWGQGTQVTVSS | low polyreactivity
QVQLVESGGGLVQAGGSLRLSCAASGSTFGRYGMGWYSQAPGKERELVAAISKNAGSTYYADSVKGRCTISRDNAKNTVYLQMNSLKPEDTAVYYCAADWRTKGYDSLGQGTQVTVSS | high polyreactivity
QVQLVESGGGLVQAGGSLRLSCAASGSTFGRYVMGWYRQAPGKERELVAAISYSGGRTYYADSVKGRFTISRDNAKNTVYLQMNSLKPEDTAVYYCNKGGIREYDYWGQGTQVTVSS | high polyreactivity
QVQLVESGGGLVQAGGSLRLSCAASGSTFGSNAIGWYRQAPGKERELVAAISKRGGSTYYADSVKGRFTISRDNAKNTVYLQMNSLKPEDTAVYYCAVAYTPSRRYSAYSADRMDYWGQGTQVTVSS | high polyreactivity
QVQLVESGGGLVQAGGSLRLSCAASGSTFGSYAMGWYRQAPGKERELVAAITGSGGRTYYADSVKGRFTISRDNAKNRVYLQLNSLKPEDTAVYYCAKVPDYRFEYWGQGTQVTVSS | high polyreactivity
